Source: patent US20240376151A1, “STAPLED PEPTIDES AND METHODS THEREOF” (FOG PHARMACEUTICALS, INC., priority 2022, published 2024)
Numbered stars: 1 amine (or outer) side, 2 acyl side, 3 side chain; on linkers, the order of the positions; unused ones are H or OH. Bridge positions count the residues as written; N and C are the ends. Ends that are not written are not given here. Phenylene(1,4-NHCOCH2)2 = O=C(C[*:1])Nc1ccc(NC(=O)C[*:2])cc1

Biological target: CDK2 (Homo sapiens, UniProt P24941)
Assay: Phage Library Screening with NGS, CDK2
Assay type: binding
Design: Full length CDK2 (residues 1-298) with an N-terminal GST-3C-6×his-TEV tag; GST-3C-6×his-TEV (N, cleaved yes); made in house; host or cells: Sf9 (Bac-to-Bac baculovirus)
Conditions: for phage screen counts, Target Concentration 10: CDK2, target concentration 10; for phage screen counts, Target Concentration 30: CDK2, target concentration 30; for phage screen counts, Target Concentration 100: CDK2, target concentration 100; for phage screen counts, Target Concentration 300: CDK2, target concentration 300
[1] = CDK2, target concentration 1000, first column
[2] = CDK2, target concentration 1000, second column

| phage screen counts, Target Concentration 10 | phage screen counts, Target Concentration 30 | phage screen counts, Target Concentration 100 | phage screen counts, Target Concentration 300 | phage screen counts, Target Concentration 1000 [1] | phage screen counts, Target Concentration 1000 [2] | Sequence |
| --- | --- | --- | --- | --- | --- | --- |
| 0 | 0 | 1 | 17 | 320 | 16 | MACVDAFFSC (linker 3-10 via Phenylene(1,4-NHCOCH2)2 (inferred)) |
| 3 | 47 | 258 | 1258 | 822 | 819 | DPAWWVCAVAAIECQEY (linker 7-14 via Phenylene(1,4-NHCOCH2)2 (inferred)) |
| 0 | 0 | 0 | 1 | 109 | 35 | PTCLNAFFACE (linker 3-10 via Phenylene(1,4-NHCOCH2)2 (inferred)) |
| 0 | 1 | 0 | 14 | 722 | 485 | PSCLSAFFSCY (linker 3-10 via Phenylene(1,4-NHCOCH2)2 (inferred)) |
| 0 | 15 | 5 | 93 | 119 | 141 | DPAWWHCVIAALDCETQ (linker 7-14 via Phenylene(1,4-NHCOCH2)2 (inferred)) |
| 0 | 0 | 0 | 57 | 452 | 284 | ECLSAFFTCV (linker 2-9 via Phenylene(1,4-NHCOCH2)2 (inferred)) |
| 0 | 0 | 0 | 4 | 7 | 408 | CLDAFFACER (linker 1-8 via Phenylene(1,4-NHCOCH2)2 (inferred); not fully specified (C-terminus)) |
| 38 | 634 | 2330 | 12368 | 7673 | 8315 | DPAWWVCAIAAIECSDV (linker 7-14 via Phenylene(1,4-NHCOCH2)2 (inferred); not fully specified (N-terminus, C-terminus)) |
| 0 | 0 | 0 | 39 | 87 | 90 | DPAWWSCVIAAMECQDI (linker 7-14 via Phenylene(1,4-NHCOCH2)2 (inferred)) |
